Experimental data as given in patent US5639616, “Isolated nucleic acid encoding a ubiquitous nuclear receptor” (Arch Development Corporation).

T1: rUR DNA-binding domain (UR-DBD) (Rattus norvegicus, UniProt Q62755 SEQ:72-168)
T1 sequence: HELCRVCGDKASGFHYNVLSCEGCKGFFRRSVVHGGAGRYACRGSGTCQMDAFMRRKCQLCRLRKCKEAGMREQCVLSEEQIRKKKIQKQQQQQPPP


How the values were obtained:
[1] = molecular target: human retinoid X receptor alpha (hRXRα) (human) (UniProt P19793)
[2] = molecular target: T1, rUR DNA-binding domain (UR-DBD); test: EMSA; monomer plus homodimer; homodimer best on DR-4 and DR-5, supershifted by hinge antibody; conditions: tags: His tag, pET15b fusion, E. coli; label: 32P; 4-nt 5' overhangs
Method: (§1) The DNA-binding ability of this domain was tested by gel-shift analyses with a set of oligonucleotides that contained AGGTCA direct repeats with 0 to 6 oligonucleotide spacing (shown above).
(§2) A segment of UR containing the DBD and a few amino acids of the hinge region (rUR amino acid residues 72 to 168) was expressed as a fusion protein using the E. coli expression vector PET15b and purified by affinity (Ni^+2/His-tag) chromatography. The DNA-binding ability of this domain was tested by gel shift analysis with a set of oligonucleotides that contained AGGTCA direct repeats with 0 to 6 oligonucleotide spacing. The UR fusion protein bound to all these direct repeats as a monomer, and optimum spacing for homodimer binding was 4 and 5 nucleotides, which is identical to a retinoic acid receptor response element (RARE). A hinge region peptide antibody super-shifted UR DBD homodimers bound to DR-4 and DR-5. Supershifting of monomer was not observed.

[3] = molecular target: T1, rUR DNA-binding domain (UR-DBD); test: EMSA; monomer binding; conditions: tags: His tag, pET15b fusion, E. coli; label: 32P; 4-nt 5' overhangs
Method: as §1, §2

[4] = molecular target: T1, rUR DNA-binding domain (UR-DBD); test: EMSA; monomer plus homodimer; optimum homodimer spacing, supershifted by hinge antibody; conditions: tags: His tag, pET15b fusion, E. coli; label: 32P; 4-nt 5' overhangs
Method: as §1, §2

Molecule | binding result [3] | other results
rat ubiquitous nuclear receptor (rUR), full-length | – | CAT activity of a DR-4 CAT reporter in COS-1 cells, absence of 9c-RA [1]: 4 to 5 fold
DR-4 (dsDNA) DNA 1: GATCCTCAGGTCACAGGAGGTCAGAAGCT DNA 2: AGCTTCTGACCTCCTGTGACCTGAGGATC | – | binding result [2]: binds
DR-2 (dsDNA) DNA 1: GATCCTCAGGTCAAGAGGTCAGAAGCT DNA 2: AGCTTCTGACCTCTTGACCTGAGGATC | binds | –
DR-0 (dsDNA) DNA 1: GATCCTCAGGTCAAGGTCAGAAGCT DNA 2: AGCTTCTGACCTTGACCTGAGGATC | binds | –
DR-6 (dsDNA) DNA 1: GATCCTCAGGTCACCAAGGAGGTCAGAAGCT DNA 2: AGCTTCTGACCTCCTTGGTGACCTGAGGATC | binds | –
DR-1 (dsDNA) DNA 1: GATCCTCAGGTCAGAGGTCAGAAGCT DNA 2: AGCTTCTGACCTCTGACCTGAGGATC | binds | –
DR-5 (dsDNA) DNA 1: GATCCTCAGGTCACCAGGAGGTCAGAAGCT DNA 2: AGCTTCTGACCTCCTGGTGACCTGAGGATC | – | binding result [4]: binds
DR-3 (dsDNA) DNA 1: GATCCTCAGGTCAAGGAGGTCAGAAGCT DNA 2: AGCTTCTGACCTCCTTGACCTGAGGATC | binds | –
